Test [1] deals with Bacillus subtilis τ protein L381P mutant (B. subtilis) (UniProt P09122). In words: SEC. A general note: Size exclusion chromatography separates by hydrodynamic size, large species first.
Test [2] concerns the target Bacillus subtilis τ protein L381A mutant (B. subtilis) (UniProt P09122). The test is described as follows: AUC.
Test [3] has the same target. In words: SEC.
Test [4] deals with Bacillus stearothermophilus DnaB helicase (B. stearothermophilus) (UniProt Q9X4C9). In words: AUC.
Test [5] deals with Bacillus subtilis τ protein (wild type) (B. subtilis) (UniProt P09122). In words: SEC.

This is an account of results in article PMC3034353.

“Bacillus subtilis τ protein L381P mutant (from UniProt P09122 1-563) (natural protein)”: in test [1], the stoichiometry N (usually the number of molecules, sites or subunits per partner or assembly) stood at 3.
Turning to “Bacillus subtilis τ protein L381A mutant (from UniProt P09122 1-563) (natural protein)”, the stoichiometry N in test [2] amounted to 4; in test [3] it was 3.
Turning to “Bacillus subtilis τ protein (wild type) (from UniProt P09122 1-563) (natural protein)”, in test [4], the stoichiometry N (τ pentamer per DnaB hexamer) was determined as 1. The same substance gave a stoichiometry N in test [5] of 4.
